# From US20180094059A1
# pEC50: −log10 of the molar value.
# Biological target: TRAIL receptors (TRAILR) on tumor cells
# Assay: flow cytometry, Colo205 cells
# Chain of scTRAIL3-… (P50591 other isoform, or with tags, fused parts or gaps): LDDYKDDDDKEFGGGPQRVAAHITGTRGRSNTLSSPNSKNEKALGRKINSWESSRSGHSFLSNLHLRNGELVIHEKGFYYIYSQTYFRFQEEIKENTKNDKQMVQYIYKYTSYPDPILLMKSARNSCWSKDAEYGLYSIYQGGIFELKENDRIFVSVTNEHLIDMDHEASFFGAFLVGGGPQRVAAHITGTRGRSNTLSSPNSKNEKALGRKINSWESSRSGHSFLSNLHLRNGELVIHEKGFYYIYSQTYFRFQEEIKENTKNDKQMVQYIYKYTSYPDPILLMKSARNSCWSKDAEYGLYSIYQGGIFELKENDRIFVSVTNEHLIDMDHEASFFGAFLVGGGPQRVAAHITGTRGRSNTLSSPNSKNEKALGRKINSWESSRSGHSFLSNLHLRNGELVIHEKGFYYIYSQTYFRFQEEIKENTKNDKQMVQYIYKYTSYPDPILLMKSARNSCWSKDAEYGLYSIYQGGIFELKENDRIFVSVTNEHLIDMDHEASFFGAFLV
substance,measurement,value
scTRAIL3-… (from UniProt P50591 118-281) (ligand),pEC50,8.25
